molecular target: T1, muTfR-His (Sino Biological) (mouse, UniProt Q62351 89-763); assay: sandwich BLI, biotinylated TREM2 on streptavidin sensor, antibody step omitted
T1 construct: extracellular domain; Bought protein; also called TfR ECD; mouse transferrin receptor; not shown: His tag
Experimental: Streptavidin sensors (Fortebio) were used to capture biotinylated TREM2 proteins (Sino Biological). During all incubation steps, samples were kept at room temperature with 1000 rpm shaking. In the TREM2 loading step, 100 nM biotinylated TREM2 proteins were incubated with the sensors for the designated time. In the bispecific antibody interaction steps, 200 nM antibodies were used. In the muTfR incubation step, 100 nM muTfR-His (Sino Biological) were used. Between incubations, the sensors were dipped into blank kinetic buffers to allow the free dissociation of proteins.

T1 sequence (Q62351 89-763): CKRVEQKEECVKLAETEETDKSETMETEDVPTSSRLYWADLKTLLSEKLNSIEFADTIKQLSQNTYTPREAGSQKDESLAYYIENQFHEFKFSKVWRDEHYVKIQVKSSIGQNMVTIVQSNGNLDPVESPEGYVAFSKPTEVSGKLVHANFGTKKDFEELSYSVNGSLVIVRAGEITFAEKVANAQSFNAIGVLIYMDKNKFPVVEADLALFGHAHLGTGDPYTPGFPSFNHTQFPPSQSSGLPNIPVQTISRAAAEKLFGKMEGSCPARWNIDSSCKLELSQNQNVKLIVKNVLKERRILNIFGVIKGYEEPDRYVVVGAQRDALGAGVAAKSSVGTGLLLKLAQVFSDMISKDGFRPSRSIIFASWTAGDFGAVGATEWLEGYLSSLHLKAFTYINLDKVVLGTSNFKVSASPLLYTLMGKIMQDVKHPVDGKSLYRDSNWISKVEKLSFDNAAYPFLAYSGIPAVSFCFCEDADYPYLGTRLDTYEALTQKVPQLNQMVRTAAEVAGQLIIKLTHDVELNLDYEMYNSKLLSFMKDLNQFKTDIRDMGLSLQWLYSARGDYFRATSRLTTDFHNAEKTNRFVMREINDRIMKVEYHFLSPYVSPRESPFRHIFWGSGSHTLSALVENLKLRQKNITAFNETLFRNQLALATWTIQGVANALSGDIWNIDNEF

Row | binding result | Binder
1 | no binding (tested: 100 nM) | biotinylated TREM2 protein (Sino Biological) (receptor, Biotinylated; sites not stated., not shown: biotin label) LNTTVLQGMAGQSLRVSCTYDALKHWGRRKAWCRQLGEEGPCQRVVSTHGVWLLAFLKKRNGSTVIADDTLAGTVTITLKNLQAGDAGLYQCQSLRGREAEVLQKVLVEVLEDPLDDQDAGDLWVPEESSSFEGAQVEHSTSRNQETSFPPTS

molecular target: TREM2-DAP12 reporter construct on 2B4 NFAT-EGFP reporter cells (mouse; human, UniProt Q99NH8 19-171; O43914 28-113); assay: cell-based or functional assay

Row | EC50 of activation of TREM2-DAP12 NFAT-EGFP reporter cells [nM] | Binder
2 | 79.4 | Ab18 IgG (antibody, V domains shown) VH: QVQLQESGPGLVKPSETLSLTCTVSGGSISSYYWSWIRQPPGKGLEWIGSIYYSGSTNYNPSLKSRVTISVDTSKNQFSLKLSSVTAADTAVYYCARDGGGEYPSGTPFDIWGQGTMVTVSS VL: not shown

molecular target: TREM2 (antigen of the BLI kinetics and binning of Tables 2 and 3); assay: BLI, Octet Red96

Row | Binder | Kd [nM] | koff [s⁻¹] | kon [M⁻¹ s⁻¹]
3 | TREM2-Ab26Rb (antibody, V domains shown, Rabbit-derived mAb; also called 26 H / 26 k) VH: QKQLVESGGDLVKPEGSLTLTCTASGFSFSYSYYMCWVRQAPGKGLEWIGCIYGGGSGSSYYASWAKGRFTISKTSSTTVTLQVTSLTAADTATYFCARIDDAYATVMWGPGTLVTVSS VL: DVVMTQTASPVSGAVGGTVTIKCQASEDIYSSLAWYQQKPGQPPKLLIYQASKLASGVPPRFSGSGSGTEYTLTISDLECADAATYYCQNYYYVRGADYWAFGGGTEVVVE | 27.5 | 0.00487 | 177000
4 | TREM2-Ab8Hu (antibody, V domains shown, also called H8-Hu / 8L-Hu) VH: QVQLVESGGGLIQPGGSLRLSCAVSGVSVSNNYMNWVRQAPGKGLEWVSSMYSDATTHYADSVKGRFTISRDNSKNNMYLQMDSLRAEDTAVYYCARESVAGTLDFWGQGTTVSVSS VL: SYELTQPPSASGTPGQRVTISCSGSSSNIGTYPVNWYQKLPGTAPKLLIYTNNQRPSGVPDRFSGSKSGTSASLTISGLQSEDEADYYCATWGDSLNAVVFGGGTKVTVL | 8.18 | 0.00499 | 609000
5 | TREM2-Ab12Rb (antibody, V domains shown, Rabbit-derived mAb; also called 12 H / 12 k) VH: QSVEESGGDLVKSGASLTLTCTASGFSFSSYYFMCWVRQAPGRGLEWIACIYAGTSANTYYASWAKGRFTISKTSSTTVTLQMTSLTAADTATYFCARDRGYYTYADAGYAYATDGFDLWGPGTLVTVSS VL: ALVMTQTPASVEAAVGGTVTIKCQASQNIYSNLAWYQQKPGQPPKRLIYKASTLPSGVPSRFKGSGSGTQFTLTISDLECADAATYYCQSNYYSSSSNYGPNAFGGGTEVVVK | 71.8 | 0.00685 | 95500
6 | TREM2-Ab22Rb (antibody, V domains shown, Rabbit-derived mAb; also called 22 H / 22 k) VH: QSVEESGGDLVKPGASLTLTCTASGFSFSSTAMCWVRQAPGKGLEWIACIGFSSGIINYANSVKGRFTISKTSSTTVSLQMNSLTAADTATYFCARFFNLWGPGTLVTVSS VL: DPVLTQTPSSVSAAVGGTVTISCQATETVYSNDRLAWYQQKPGQPPKLLIYRISTLESGVPSRFKGSGSGTQFTLTISGVQCDDAATYYCAGGYNGNIWAFGGGTEVVVK | 3.1 | 0.00107 | 346000
7 | TREM2-Ab2Hu (antibody, V domains shown, also called H2-Hu / 2L-Hu) VH: QVQLVQSGAEVKKPGASVKVSCKASGYTFTSYYMHWVRQAPGQGLEWMGIINPSGGSTSYAQKFQGRVTMTRDTSTSTVYMELSSLRSEDTAVYYCARDRPGRSSIAAAGPKRGHYGMDVWGQGTTVSVSS VL: QSALNQPASVSGSPGQSITISCTGTSSDVGGYNYVSWYQQHPGKAPKLMIYEVSNRPSGVSNRFSGSKSGNTASLTISGLQAEDEADYYCSSYTSSRTLVFGTGTKVTVL | 18.1 | 0.00647 | 359000
8 | TREM2-Ab19Hu (antibody, V domains shown, also called H19-Hu / 19L-Hu) VH: EVQLVQSGAEVKKPGASVKVSCKASGYTFTSYYMHWVRQAPGQGLEWMGIINPSGGSTSYAQKFQGRVTMTRDTSTSTVYMELSSLRSEDTAVYYCARSLSSGSYYDYWGQGTLVSVSS VL: QSALTQPASVSGSPGQSITISCTGTSSDVGGYNYVSWYQQHPGKAPKLMIYDVTKRPSGVSNRFSGSKSGNTASLTVSGLQAEDEADYYCSSYTSSRTLVFGGGTKVTVL | 18.9 | 0.00986 | 522000

Second part, the binder after the results:

Row | Kd [nM] | koff [s⁻¹] | kon [M⁻¹ s⁻¹] | Binder
9 | 0.32 | 7.84e-05 | 245000 | TREM2-Ab16Rb (antibody, V domains shown, Rabbit-derived mAb; also called 16 H / 16 k) VH: QEQLVESGGGLVKPGASLTLTCTASGFSFSDTAYICWVRQAPGKGLEWVACIAFGDGRTYLASWAKGRFTISKTSSTTVTLQMTSLPAADTATYFCASNFTLWGPGTLVTVSS VL: DVVMTQTPASVSEPVGGTVTINCQAIQSIGNNFVWYQQKPGQPPKLLIYKASIRASGVSSRFRGSGSGTDFTLTISDLECDDTGTYYCQCTYASSATFGGGTEVVVK
10 | 1.42 | 0.000727 | 513000 | TREM2-Ab1Rb (antibody, V domains shown, Rabbit-derived mAb; also called 1 H / 1 k) VH: QEQLVESGGGLVTPGGTLTLTCTASGIDFSNYGISWVRQAPGKGLEWIGYIYPDYGATAYANWVNGRFTVSLDNAQNTVTLNMTSLTAADTATYFCARSTGWGDFNLWGPGTLVTVSS VL: DVVMTQTPASVSEPVGGTVTIKCQASQNIGSNLAWYQQKPGQPPNLLIYGASNLASGVSSRFKGSSSGTEYTLTISDLECADAATYYCQCTYYGSSYVAFGGGTEVVVK
11 | 1.2 | 0.000451 | 376000 | TREM2-Ab2Rb (antibody, V domains shown, Rabbit-derived mAb; also called 2 H / 2 k) VH: QKQLVESGGGLVKPEGSLTLTCKVSGIDFSSAGISWVRQAPGKGLEWIAYIYPDYGVTDYANWVNGRFTISLDNAQNTVFLQMTSLTAADTATYFCARMDAADAGYGYDLWGPGTLVTVSS VL: AAVLTQTTSPVSGAVGGTVTIKCQASQSVGSNLAWYQQKPGQPPKILIGGASKLASGVPSRFSGSGSGTEFTLTISDLECADAGTYYCHSYYYSSTSADAFGGGTKVVVE
12 | 1.97 | 0.000909 | 461000 | TREM2-Ab6Rb (antibody, V domains shown, also called 2 H / 6 k) VH: QKQLVESGGGLVKPEGSLTLTCKVSGIDFSSAGISWVRQAPGKGLEWIAYIYPDYGVTDYANWVNGRFTISLDNAQNTVFLQMTSLTAADTATYFCARMDAADAGYGYDLWGPGTLVTVSS VL: DVVMTQTTSPVSGAVGGTVTIKCQASQSVGTNLAWYQQKPGQPPKILIGGASKLASGVPSRFSGSGSGTEFTFTISDLECADAGTYYCHSYYYSSTSADAFGGGTEVVVK

Reference: patent US20240376199A1 (University of Texas, published 2024)
